Measurements as given in article PMC5971202.
Positions count from the first letter of the chain named. Read-outs that look alike come from different tables or passages of the source.

T1: rDDX1 (WT) (human, UniProt Q92499 1-728)
T1 sequence: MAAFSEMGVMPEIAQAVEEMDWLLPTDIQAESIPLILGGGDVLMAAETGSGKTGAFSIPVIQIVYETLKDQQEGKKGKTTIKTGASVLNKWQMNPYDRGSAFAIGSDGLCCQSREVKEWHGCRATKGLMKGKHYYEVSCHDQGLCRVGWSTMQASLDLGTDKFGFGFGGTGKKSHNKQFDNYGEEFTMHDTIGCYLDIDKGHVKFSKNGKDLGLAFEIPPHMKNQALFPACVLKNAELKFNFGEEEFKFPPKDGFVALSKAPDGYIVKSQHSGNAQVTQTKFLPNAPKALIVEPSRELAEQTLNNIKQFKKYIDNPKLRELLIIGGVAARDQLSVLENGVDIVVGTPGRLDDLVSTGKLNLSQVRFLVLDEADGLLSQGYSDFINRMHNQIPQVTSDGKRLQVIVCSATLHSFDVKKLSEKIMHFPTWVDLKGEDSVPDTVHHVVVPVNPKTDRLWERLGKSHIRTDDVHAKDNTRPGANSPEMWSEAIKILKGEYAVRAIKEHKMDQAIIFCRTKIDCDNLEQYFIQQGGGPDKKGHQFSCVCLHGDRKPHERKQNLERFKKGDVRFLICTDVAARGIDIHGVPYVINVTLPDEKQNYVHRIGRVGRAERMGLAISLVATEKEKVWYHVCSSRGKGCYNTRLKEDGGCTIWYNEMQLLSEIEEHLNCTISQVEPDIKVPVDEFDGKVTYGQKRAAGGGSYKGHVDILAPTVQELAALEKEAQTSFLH

T2: rDDX1-K52A (human, UniProt Q92499 1-728, K52A)
T2 sequence: T1 sequence with K52A


Legend:
Assay in all cases: EMSA
rDDX1 (WT) [1] = biological target: T1, rDDX1 (WT)
rDDX1-K52A [2] = biological target: T2, rDDX1-K52A
rDDX1 (WT) [3] = biological target: T1, rDDX1 (WT); remark: listed apart in the source
rDDX1-K52A [4] = biological target: T2, rDDX1-K52A; remark: listed apart in the source

Binder	binding result (rDDX1 (WT) [1])	binding result (rDDX1-K52A [2])	binding result (rDDX1 (WT) [3])	binding result (rDDX1-K52A [4])
GAGCUGCGCUGAGCUGCGCUGAGCUGCGCUGAGCUGCGCU (ssRNA) [Sμ4Gmut RNA 32P]	no binding	–	–	–
GAGCUGGGGUGAGCUGGGGUGAGCUGGGGUGAGCUGGGGU (structured_RNA) [Sμ4G RNA 32P]	binds	binds	–	–
ATCGGAATGTATGAGAATAGAAGAGATAATGAATAATAGAA (ssDNA) [Single-stranded DNA]	–	–	no binding	no binding
